The target of this assay is SARS-CoV-2 wild type RBD (319-541aa) (SARS-CoV-2, UniProt P0DTC2 319-541). The experiment in a line: SPR. (In general: SPR reads the build-up and loss of mass on a sensor chip optically.)

The values that follow come from publication PMC9569855 (2022).

B1: Bamlanivimab (antibody, V domains shown)
VH: QVQLVQSGAEVKKPGSSVKVSCKASGGTFSNYAISWVRQAPGQGLEWMGRIIPILGIANYAQKFQGRVTITADKSTSTAYMELSSLRSEDTAVYYCARGYYEARHYYYYYAMDVWGQGTAVTVSS
VL: not shown
B1: the koff came out at 0.0014 s⁻¹.

By koff is commonly meant the first-order rate constant of dissociation. Low readings indicate a long-lived complex, high ones a short-lived complex.
